# Measurements reported in the supplement of paper PMC9112550, “Optimization of the antimicrobial peptide Bac7 by deep mutational scanning” (BMC Biology, 2022).
# Tested on: Escherichia coli TOP10
# Assay: shrunken log2 fold change of peptide-encoding DNA abundance (4.5 h post-induction vs induction); higher = less antimicrobial activity (less host growth inhibition)
# Details: time post-induction: 4.5 h; library: site-saturation at positions 5, 18, 19, 20
# 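Note: peptides expressed intracellularly from a pBAD plasmid library in pooled LB shake-flask culture, induced with 0.3% L-arabinose, DNA abundance read by NGS, three biological replicates, DESeq2 with apeglm shrinkage.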
row,Sequence,shrunken log2 fold change
1,RRIRVRPPRLPRPRPRPFSVPRP,-0.299
2,RRIRLRPPRLPRPRPRPKFIPRP,-0.304
3,RRIRVRPPRLPRPRPRPSEGPRP,-0.116
4,RRIRERPPRLPRPRPRPQKLPRP,-0.69
5,RRIRRRPPRLPRPRPRPPSYPRP,0.26
6,RRIRMRPPRLPRPRPRPLMMPRP,0.452
7,RRIRYRPPRLPRPRPRPKKTPRP,-0.0419
8,RRIRLRPPRLPRPRPRPNQLPRP,-0.407
9,RRIRSRPPRLPRPRPRPMAVPRP,-0.000652
10,RRIRTRPPRLPRPRPRPRVVPRP,1.87
11,RRIRGRPPRLPRPRPRPACCPRP,0.875
12,RRIRCRPPRLPRPRPRPPGEPRP,0.609
13,RRIRFRPPRLPRPRPRPHFEPRP,-0.185
14,RRIRERPPRLPRPRPRPPQRPRP,0.315
15,RRIRSRPPRLPRPRPRPGRAPRP,1.02
16,RRIRHRPPRLPRPRPRPNEFPRP,-0.00664
17,RRIRYRPPRLPRPRPRPNPEPRP,-0.0105
18,RRIRWRPPRLPRPRPRPITSPRP,-0.122
19,RRIRLRPPRLPRPRPRPHHDPRP,-0.694
20,RRIRYRPPRLPRPRPRPTFLPRP,-0.495
21,RRIRIRPPRLPRPRPRPECVPRP,0.0147
22,RRIRDRPPRLPRPRPRPFDWPRP,0.374
23,RRIRPRPPRLPRPRPRPEFCPRP,0.18
24,RRIRLRPPRLPRPRPRPREPPRP,0.139
25,RRIRERPPRLPRPRPRPSQIPRP,0.012

row,Sequence,shrunken log2 fold change
1,RRIRSRPPRLPRPRPRPWFQPRP,-0.246
2,RRIRKRPPRLPRPRPRPHSGPRP,0.066
3,RRIRRRPPRLPRPRPRPEFWPRP,0.736
4,RRIRDRPPRLPRPRPRPSCRPRP,-0.0363
5,RRIRFRPPRLPRPRPRPRDYPRP,-0.2
6,RRIRMRPPRLPRPRPRPPFNPRP,0.175
7,RRIRPRPPRLPRPRPRPTFKPRP,0.0985
8,RRIRPRPPRLPRPRPRPVITPRP,-0.123
9,RRIRLRPPRLPRPRPRPSAWPRP,-0.0766
10,RRIRLRPPRLPRPRPRPWNSPRP,-0.018
11,RRIRERPPRLPRPRPRPMGMPRP,-0.00992
12,RRIRVRPPRLPRPRPRPAYEPRP,0.0112
13,RRIRLRPPRLPRPRPRPYLIPRP,-0.274
14,RRIRHRPPRLPRPRPRPMLCPRP,-0.0124
15,RRIRNRPPRLPRPRPRPAPLPRP,0.196
16,RRIRERPPRLPRPRPRPGAFPRP,-0.0461
17,RRIRIRPPRLPRPRPRPCWHPRP,-0.428
18,RRIRQRPPRLPRPRPRPRFRPRP,0.0281
19,RRIRPRPPRLPRPRPRPFIWPRP,-0.271
20,RRIRSRPPRLPRPRPRPTMYPRP,-0.247
21,RRIRVRPPRLPRPRPRPPNSPRP,0.12
22,RRIRIRPPRLPRPRPRPPQMPRP,-0.0135
23,RRIRRRPPRLPRPRPRPLLEPRP,0.534
24,RRIRKRPPRLPRPRPRPKQCPRP,0.0637
25,RRIRDRPPRLPRPRPRPSDSPRP,-0.0584

row,Sequence,shrunken log2 fold change
1,RRIRFRPPRLPRPRPRPMVLPRP,-0.0723
2,RRIRMRPPRLPRPRPRPHMKPRP,-0.158
3,RRIRMRPPRLPRPRPRPFSGPRP,-0.0134
4,RRIRQRPPRLPRPRPRPHGGPRP,-0.0841
5,RRIRDRPPRLPRPRPRPLHHPRP,-0.314
6,RRIRRRPPRLPRPRPRPAHKPRP,0.386
7,RRIRRRPPRLPRPRPRPCITPRP,-0.846
8,RRIRRRPPRLPRPRPRPRDKPRP,0.126
9,RRIRFRPPRLPRPRPRPGLVPRP,-0.0941
10,RRIRARPPRLPRPRPRPQNCPRP,-0.19
11,RRIRARPPRLPRPRPRPREAPRP,1.25
12,RRIRLRPPRLPRPRPRPFKPPRP,0.2
13,RRIRVRPPRLPRPRPRPSYYPRP,-0.674
14,RRIRDRPPRLPRPRPRPYPCPRP,-0.112
15,RRIRWRPPRLPRPRPRPMVPPRP,-0.0589
16,RRIRMRPPRLPRPRPRPMHCPRP,0.0428
17,RRIRSRPPRLPRPRPRPKHTPRP,-0.206
18,RRIRQRPPRLPRPRPRPMGVPRP,-0.00411
19,RRIRWRPPRLPRPRPRPMGRPRP,-0.012
20,RRIRNRPPRLPRPRPRPNQLPRP,-0.228
21,RRIRTRPPRLPRPRPRPHYIPRP,-0.105
22,RRIRHRPPRLPRPRPRPVAGPRP,0.26
23,RRIRWRPPRLPRPRPRPRNLPRP,0.0777
24,RRIRARPPRLPRPRPRPGLHPRP,0.275
25,RRIRARPPRLPRPRPRPHAHPRP,0.254

row,Sequence,shrunken log2 fold change
1,RRIRRRPPRLPRPRPRPHFPPRP,0.553
2,RRIRARPPRLPRPRPRPDEPPRP,0.0489
3,RRIRQRPPRLPRPRPRPWIIPRP,-0.329
4,RRIRERPPRLPRPRPRPHTSPRP,-0.122
5,RRIRDRPPRLPRPRPRPCKKPRP,-0.00395
6,RRIRDRPPRLPRPRPRPIWIPRP,0.0877
7,RRIRSRPPRLPRPRPRPTQVPRP,0.839
8,RRIRMRPPRLPRPRPRPKCEPRP,0.52
9,RRIRMRPPRLPRPRPRPWRDPRP,0.518
10,RRIRPRPPRLPRPRPRPYTIPRP,0.00679
11,RRIRARPPRLPRPRPRPHMCPRP,-0.174
12,RRIRKRPPRLPRPRPRPWSEPRP,0.00538
13,RRIRLRPPRLPRPRPRPFVMPRP,-0.241
14,RRIRNRPPRLPRPRPRPIHRPRP,0.0891
15,RRIRSRPPRLPRPRPRPVLGPRP,0.447
16,RRIRYRPPRLPRPRPRPGPHPRP,-0.115
17,RRIRMRPPRLPRPRPRPQPNPRP,0.546
18,RRIRYRPPRLPRPRPRPAADPRP,-0.0866
19,RRIRSRPPRLPRPRPRPAKDPRP,0.135
20,RRIRDRPPRLPRPRPRPWNPPRP,-0.586
21,RRIRQRPPRLPRPRPRPEQYPRP,-0.0417
22,RRIRDRPPRLPRPRPRPATMPRP,0.168
23,RRIRTRPPRLPRPRPRPRWLPRP,0.369
24,RRIRQRPPRLPRPRPRPFKQPRP,-0.24
25,RRIRGRPPRLPRPRPRPQATPRP,1.2

row,Sequence,shrunken log2 fold change
1,RRIRQRPPRLPRPRPRPGVLPRP,0.0476
2,RRIRMRPPRLPRPRPRPGMNPRP,-0.00589
3,RRIRQRPPRLPRPRPRPVRDPRP,0.556
4,RRIRFRPPRLPRPRPRPIYAPRP,-0.143
5,RRIRPRPPRLPRPRPRPKPRPRP,0.502
6,RRIRCRPPRLPRPRPRPCPSPRP,-0.0705
7,RRIRWRPPRLPRPRPRPHMDPRP,-0.18
8,RRIRNRPPRLPRPRPRPQIYPRP,-0.0394
9,RRIRMRPPRLPRPRPRPVWMPRP,0.169
10,RRIRYRPPRLPRPRPRPCDTPRP,-0.0977
11,RRIRSRPPRLPRPRPRPWAEPRP,0.0168
12,RRIRFRPPRLPRPRPRPPEPPRP,0.54
13,RRIRDRPPRLPRPRPRPQTTPRP,0.0462
14,RRIRNRPPRLPRPRPRPPHTPRP,-0.0383
15,RRIRCRPPRLPRPRPRPMQCPRP,0.0136
16,RRIRDRPPRLPRPRPRPLDCPRP,0.118
17,RRIRCRPPRLPRPRPRPEPRPRP,0.61
18,RRIRSRPPRLPRPRPRPAPMPRP,0.492
19,RRIRFRPPRLPRPRPRPWQTPRP,-0.0222
20,RRIRKRPPRLPRPRPRPLCGPRP,0.367
21,RRIRRRPPRLPRPRPRPRVIPRP,0.0591
22,RRIRARPPRLPRPRPRPGSRPRP,0.279
23,RRIRRRPPRLPRPRPRPICHPRP,0.692
24,RRIRLRPPRLPRPRPRPQPKPRP,0.172
25,RRIRLRPPRLPRPRPRPRLVPRP,0.0317
